Measurements published in publication PMC4742745 (The Journal of Biological Chemistry, 2015).

T1: recombinant human wild type LCAT protein (lecithin-cholesterol acyltransferase) (human, UniProt P04180 25-440)
T1 sequence (looked up): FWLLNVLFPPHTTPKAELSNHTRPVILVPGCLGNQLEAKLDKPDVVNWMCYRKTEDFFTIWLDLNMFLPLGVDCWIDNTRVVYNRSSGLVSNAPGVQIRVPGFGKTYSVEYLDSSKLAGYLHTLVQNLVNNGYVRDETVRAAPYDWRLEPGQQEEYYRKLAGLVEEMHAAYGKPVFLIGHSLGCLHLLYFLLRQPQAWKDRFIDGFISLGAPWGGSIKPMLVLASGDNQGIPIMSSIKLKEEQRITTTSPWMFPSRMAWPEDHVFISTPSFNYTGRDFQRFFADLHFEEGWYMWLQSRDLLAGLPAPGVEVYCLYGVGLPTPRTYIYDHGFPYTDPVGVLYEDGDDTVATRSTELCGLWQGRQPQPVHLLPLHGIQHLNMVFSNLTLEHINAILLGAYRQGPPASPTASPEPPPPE


Legend:
[1] = biological target: T1, recombinant human wild type LCAT …; assay: cell-based or functional assay
[2] = biological target: T1, recombinant human wild type LCAT …; assay: SPR; Biacore 3000, 25 °C, HBS-EP (10 mM HEPES pH 7.4, 150 mM NaCl, 3.0 mM EDTA, 0.05% surfactant P20); mAb captured (100 RU) on goat anti-human IgG Fc amine-coupled to a CM5 chip; LCAT flowed over (human 100 nM to 412 pM, cynomolgus 111 nM to 457 pM, 3-fold dilutions); 1:1 binding model, KD = kd/ka; conditions: both partners purified

| increase of the cholesterol esterification activity of native LCAT by 27C3, apoAI-proteoliposomes as substrate [1] | Kd [2] | koff [2] | kon [2] | Binder |
| --- | --- | --- | --- | --- |
| 3 fold | 1.32 nM | – | – | 27C3, fully human anti-human LCAT agonistic monoclonal antibody (antibody, V domains shown, VH of 27C3; VL of 27C3 (lambda); Human IgG2 with lambda light chain; a possible N-linked glycosylation site in heavy chain CDR1; also called 27C3 mAb; 27C3-huIgG2; source: XenoMouse hybridoma, purified from clonal hybridoma exhaust supernatants) VH: QVQLQESGPGLVKPSQTLSLTCTVSGASISSGGYNWSWIRQHPGKGLEWIGYIYYSGSTYYNPSLKSRVTISVDTSKNQFSLKLSSVTAADTAVYYCARERGYCSSTSCSRVMDVWGQGTTVTVSS VL: SSELTQDPAVSVALGQTVRITCQGDSLRSYYASWYQQKPGQAPVLVIYGKNNRPSGIPDRFSGSSSGNTASLTITGAQAEDEADYYCNSRDNIGNHQVFGGGTKLTVLG |
| – | 1.01 nM | 0.000133 s⁻¹ | 132000 M⁻¹ s⁻¹ | 18E5, fully human anti-human LCAT agonistic monoclonal antibody (antibody, V domains shown, VH of 18E5; VL of 18E5 (kappa); Human IgG with kappa light chain (the light chain was amplified with a primer to the human kappa constant region); also called 18E5 mAb; source: XenoMouse hybridoma, purified from clonal hybridoma exhaust supernatants) VH: not shown VL: EIVLTQSPGTLSLSPGERATLSCRASQSVSGSYLTWYQQKPGQAPRLLIYGASSRATGIPDRFSGSGSGTDFTLTISRLEPEDFAMYYCQQYGGSPPFTFGPGTKVDIKR |
